No end group written: not given here. *: point of attachment. Biotin = O=C1N[C@H]2[C@H](CS[C@H]2CCCCC(=O)*)N1

This note sets out measurements from US9056892B2, “Retrograde transport peptide and use of same for delivery to central nervous system” (UNIVERSITY OF WASHINGTON, priority 2011, dated 2015).

Data set [1] relates to neurons in the human spinal cord. Nature of the data set: Labeling of fresh frozen human spinal cord sections by biotinylated 2404 complexed with quantum dot streptavidin. Type of data set: binding. The conditions noted are these: overall conclusion. Here is the method: FIGS. 6A-6D. Photomicrographs showing TAxI-Streptavidin labels neurons in the adult human spinal cord. Steptavidin conjugated quantum dots (Qdots) were complexed with biotinylated TAxI peptide and incubated on human spinal cord tissue with anti-NeuN and anti-ChAT antibodies. FIG. 6A. Confocal micrographs of ventral root motor neurons stained immunofluorescently for NueN (prominent cytoplasmic stain) and ChAT (lighter cytoplasmic staining) and TAxI-Qdots (primarily visible in the nuclear region). FIG. 6B. High magnification images of the ventral horn stained by immunofluorescence. FIG. 6C. High magnification images of the dorsal grey matter stained by immunofluorescence. FIG. 6D. Spinal cord tissue pre-blocked with 10-fold excess of TAxI-peptide prior to immunofluorescence for NeuN and ChAT and TAxI-QDots.
The ability to target motor neurons that transport peptide-protein complexes and biologically active proteins into the spinal cord provides tremendous potential for utilizing and delivering novel therapeutics for the CNS. This Example examined whether the 2404-peptide could bind to neural elements within the fresh frozen sections of the human spinal cord. […] 2404-steptavidin labeled cells were not prominent in dorsal aspects of the spinal cord.

Data set [2] can be described thus: Delivery to the CNS after intraperitoneal injection. Format: in vivo. An excerpt:
The methods described above in Example 1 were modified to explore alternative modes of delivery to intramuscular injection.

Data set [3] has as its system spinal cord motor neurons. Nature of the data set: Cre recombinase delivery into spinal cord after IM injection in Ai14 reporter mice (tdTomato expression). Type of data set: in vivo. The conditions noted are these: 2.5 μg into gastrocnemius, one week post-injection. How it is done: To have utility as a therapeutic protein delivery system, the TAxI peptide must traffic cargo without rapid degradation or sequestration. To test for TAxI-mediated delivery of active enzyme to the spinal cord, we generated a series of Cre recombinase chimeras: wild-type Cre (Cre), Cre fused to the TAxI peptide (TAxI-Cre), and Cre fused to a mutated TAxI moiety (TAxI^Q-Cre). After purification, each recombinant Cre protein was injected (2.5 μg) into the gastrocnemius of the Ai14 reporter mice. In these mice, delivery of biologically active Cre recombinase results in td-Tomato expression due the excision of a floxed stop-codon.[27] One week post-injection, confocal microscopy was used to image spinal cords isolated after perfusion fixation. […] Furthermore, td-Tomato^+-cells projected into intermediate lamina of the spinal cord as well as into interneuron polls within multiple longitudinal segments, similar to efferent motor neurons (inset).
The coding sequence for Cre recombinase was obtained from the University of Washington Yeast Resource Center. The TAxI peptide sequence was added to the 5-prime end and both TAxI-Cre and wild-type Cre were subcloned into pRSETb (Invitrogen). To allow for expression and purifaction, each plasmid was transformed into BL21(D3)pLysS and grown in media supplemented with IPTG/X-gal (Promega). […]

Take “QSQSQMR (Biotin-SACQSQSQMRCGGG; disulfide (positions not given here); not fully specified (bridges); also: cyclized, mode not given here) [Clone 2404]”: in data set [1], the “binding and labeling of neurons in the human spinal cord” value is “able to bind and label neurons in the human spinal cord specifically”. Further, the “delivery to the CNS” value in data set [2] is “robust delivery to the CNS”.
Consider “ASGAQAR (GGCASGAQARCGG; disulfide (positions not given here); not fully specified (N-terminus, bridges); also: cyclic, mode not given here) [Clone 2404Q]”, for which the “delivery to the CNS” value in data set [2] is listed as “robust delivery to the CNS”.
Same read-out and setting: under TSTAPHLRLRLTSR [Clone 4042] stands “robust delivery to the CNS”.

B1: Cre: wild-type Cre recombinase, recombinant 6×-his-tagged (protein, UniProt P06956 1-343, looked up)
Recombinase cre: MSNLLTVHQNLPALPVDATSDEVRKNLMDMFRDRQAFSEHTWKMLLSVCRSWAAWCKLNNRKWFPAEPEDVRDYLLYLQARGLAVKTIQQHLGQLNMLHRRSGLPRPSDSNAVSLVMRRIRKENVDAGERAKQALAFERTDFDQVRSLMENSDRCQDIRNLAFLGIAYNTLLRIAEIARIRVKDISRTDGGRMLIHIGRTKTLVSTAGVEKALSLGVTKLVERWISVSGVADDPNNYLFCRVRKNGVAAPSATSQLSTRALEGIFEATHRLIYGAKDDSGQRYLAWSGHSARVGAARDMARAGVSIPEIMQAGGWTNVNIVMNYIRNLDSETGAMVRLLEDGD
modifications: 6xHis tag
notes: wild-type Cre recombinase, recombinant 6×-his-tagged
Regarding B1, the “tdTomato colocalization with NeuN and ChAT” value in data set [3] is given as “did not induce tdTomato expression in either NeuN or ChAT-positive cells”. Besides, in data set [3] (confocal microscopy), the “tdTomato expression in the lumbar spinal cord” value was “small punctuate tdTomato^+-cells”.
